According to patent US7960155B1, “Cytochrome p450 monooxygenases and their use for oxidizing organic compounds” (BASF Aktiengesellschaft, priority 1999, dated 2011):

System: blue pigment (indigo/indirubin) production
Settings: 2-liter flask containing 300 ml of TB medium for the triple mutant

B1: WT: wild-type cytochrome P450 monooxygenase BM-3 from Bacillus megaterium (SEQ ID NO:2) (protein, listed as Bacillus megaterium)
chain: TIKEMPQPKTFGELKNLPLLNTDKPVQALMKIADELGEIFKFEAPGRVTRYLSSQRLIKEACDESRFDKNLSQALKFVRDFAGDGLFTSWTHEKNWKKAHNILLPSFSQQAMKGYHAMMVDIAVQLVQKWERLNADEHIEVPEDMTRLTLDTIGLCGFNYRFNSFYRDQPHPFITSMVRALDEAMNKLQRANPDDPAYDENKRQFQEDIKVMNDLVDKIIADRKASGEQSDDLLTHMLNGKDPETGEPLDDENIRYQIITFLIAGHETTSGLLSFALYFLVKNPHVLQKAAEEAARVLVDPVPSYKQVKQLKYVGMVLNEALRLWPTAPAFSLYAKEDTVLGGEYPLEKGDELMVLIPQLHRDKTIWGDDVEEFRPERFENPSAIPQHAFKPFGNGQRACIGQQFALHEATLVLGMMLKHFDFEDHTNYELDIKETLTLKPEGFVVKAKSKKIPLGGIPSPSTEQSAKKVRKKAENAHNTPLLVLYGSNMGTAEGTARDLADIAMSKGFAPQVATLDSHAGNLPREGAVLIVTASYNGHPPDNAKQFVDWLDQASADEVKGVRYSVFGCGDKNWATTYQKVPAFIDETLAAKGAENIADRGEADASDDFEGTYEEWREHMWSDVAAYFNLDIENSEDNKSTLSLQFVDSAADMPLAKMHGAFSTNVVASKELQQPGSARSTRHLEIELPKEASYQEGDHLGVIPRNYEGIVNRVTARFGLDASQQIRLEAEEEKLAHLPLAKTVSVEELLQYVELQDPVTRTQLRAMAAKTVCPPHKVELEALLEKQAYKEQVLAKRLTMLELLEKYPACEMKFSEFIALLPSIRPRYYSISSSPRVDEKQASITVSVVSGEAWSGYGEYKGIASNYLAELQEGDTITCFISTPQSEFTLPKDPETPLIMVGPGTGVAPFRGFVQARKQLKEQGQSLGEAHLYFGCRSPHEDYLYQEELENAQSEGIITLHTAFSRMPNQPKTYVQHVMEQDGKKLIELLDQGAHFYICGDGSQMAPAVEATLMKSYADVHQVSEADARLWLQQLEEKGRYAKDVWAG
With B1 the “blue pigment production in culture” value was “does not have the ability to produce the blue indigo-containing pigment”.
